T1: GST-OsEIL1N (Oryza sativa, UniProt Q10M41 1-350)
T1 sequence: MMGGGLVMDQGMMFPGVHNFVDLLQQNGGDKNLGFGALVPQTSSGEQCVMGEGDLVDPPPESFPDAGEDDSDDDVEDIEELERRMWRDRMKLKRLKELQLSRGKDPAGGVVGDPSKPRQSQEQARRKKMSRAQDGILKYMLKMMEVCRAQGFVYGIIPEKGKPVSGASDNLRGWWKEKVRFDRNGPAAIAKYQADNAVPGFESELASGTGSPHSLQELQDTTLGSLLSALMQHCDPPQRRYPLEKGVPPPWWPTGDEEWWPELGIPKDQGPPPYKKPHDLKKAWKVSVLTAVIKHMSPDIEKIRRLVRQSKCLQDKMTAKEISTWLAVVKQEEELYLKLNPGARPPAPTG

B1: OsERF115 probe 1 (EBS1) (dsDNA)
DNA 1: CATAACTTTTCAGTCACATCATCTCCAATTTCAACCAAAATCCAAAC
DNA 2: GTTTGGATTTTGGTTGAAATTGGAGATGATGTGACTGAAAAGTTATG
B2: OsERF115 probe 3 (EBS3) (dsDNA)
DNA 1: GATAGAACTACGTATGCACGGACCGGCTCATCACTAGAGGAG
DNA 2: CTCCTCTAGTGATGAGCCGGTCCGTGCATACGTAGTTCTATC
B3: OsERF115 probe 2 (EBS2) (dsDNA)
DNA 1: ATATGGCTAGAAACATAAATGTAGCTACTTTCTCTGTGCACGA
DNA 2: TCGTGCACAGAGAAAGTAGCTACATTTATGTTTCTAGCCATAT

The binders below were run against T1, GST-OsEIL1N (assay: EMSA; EMSA/Gel-Shift Binding Buffer (Beyotime GS005), 30 min at room temperature, 6% native PAGE; salt and pH not stated). Details: protein: recombinant; tags: GST (N-terminal, pGEX-4T); label: 5' biotin on strand 1; blunt.

Binding result, binds:
B1
B2
B3
